{
  "source": "paper doi:10.1101/2025.08.30.673243",
  "key": {"[1]": {"target": "HeLa cohesin (unlabelled cohesin-STAG1) (human (endogenous in HeLa)) (UniProt Q14683)", "sequence (Q14683 whole entry, chain 1 of 4)": "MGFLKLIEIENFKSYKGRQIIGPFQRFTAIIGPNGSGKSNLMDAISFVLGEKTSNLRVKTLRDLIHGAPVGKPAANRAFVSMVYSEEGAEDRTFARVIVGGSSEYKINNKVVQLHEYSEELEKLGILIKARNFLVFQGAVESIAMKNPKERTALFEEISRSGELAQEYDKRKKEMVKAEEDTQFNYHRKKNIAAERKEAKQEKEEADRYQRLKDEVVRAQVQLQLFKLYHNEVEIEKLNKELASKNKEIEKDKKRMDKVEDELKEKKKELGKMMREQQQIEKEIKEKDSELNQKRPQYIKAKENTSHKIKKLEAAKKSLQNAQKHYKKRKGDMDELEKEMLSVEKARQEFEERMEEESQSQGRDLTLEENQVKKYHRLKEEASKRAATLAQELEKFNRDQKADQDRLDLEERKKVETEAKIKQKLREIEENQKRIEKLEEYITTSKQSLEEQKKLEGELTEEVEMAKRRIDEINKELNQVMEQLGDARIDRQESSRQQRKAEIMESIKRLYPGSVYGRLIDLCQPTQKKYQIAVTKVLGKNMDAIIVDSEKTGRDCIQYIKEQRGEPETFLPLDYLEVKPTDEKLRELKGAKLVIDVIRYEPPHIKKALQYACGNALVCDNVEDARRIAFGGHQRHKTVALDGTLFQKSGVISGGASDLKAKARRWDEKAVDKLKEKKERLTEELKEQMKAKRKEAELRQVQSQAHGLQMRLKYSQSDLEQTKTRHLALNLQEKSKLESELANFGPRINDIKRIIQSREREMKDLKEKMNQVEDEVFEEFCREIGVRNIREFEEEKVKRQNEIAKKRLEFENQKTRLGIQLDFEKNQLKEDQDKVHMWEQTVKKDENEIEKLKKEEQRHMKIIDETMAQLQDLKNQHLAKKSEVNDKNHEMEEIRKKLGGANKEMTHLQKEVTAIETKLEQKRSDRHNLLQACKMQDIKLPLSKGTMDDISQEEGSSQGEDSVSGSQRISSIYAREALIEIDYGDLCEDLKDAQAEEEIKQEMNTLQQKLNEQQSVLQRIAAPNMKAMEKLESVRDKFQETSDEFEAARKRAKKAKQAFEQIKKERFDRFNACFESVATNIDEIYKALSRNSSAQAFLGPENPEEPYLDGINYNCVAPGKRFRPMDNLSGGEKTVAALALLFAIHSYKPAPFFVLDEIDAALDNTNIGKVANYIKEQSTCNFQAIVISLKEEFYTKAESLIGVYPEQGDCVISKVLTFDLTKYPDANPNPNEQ", "sequence (Q9UQE7 whole entry, chain 2 of 4, further chain)": "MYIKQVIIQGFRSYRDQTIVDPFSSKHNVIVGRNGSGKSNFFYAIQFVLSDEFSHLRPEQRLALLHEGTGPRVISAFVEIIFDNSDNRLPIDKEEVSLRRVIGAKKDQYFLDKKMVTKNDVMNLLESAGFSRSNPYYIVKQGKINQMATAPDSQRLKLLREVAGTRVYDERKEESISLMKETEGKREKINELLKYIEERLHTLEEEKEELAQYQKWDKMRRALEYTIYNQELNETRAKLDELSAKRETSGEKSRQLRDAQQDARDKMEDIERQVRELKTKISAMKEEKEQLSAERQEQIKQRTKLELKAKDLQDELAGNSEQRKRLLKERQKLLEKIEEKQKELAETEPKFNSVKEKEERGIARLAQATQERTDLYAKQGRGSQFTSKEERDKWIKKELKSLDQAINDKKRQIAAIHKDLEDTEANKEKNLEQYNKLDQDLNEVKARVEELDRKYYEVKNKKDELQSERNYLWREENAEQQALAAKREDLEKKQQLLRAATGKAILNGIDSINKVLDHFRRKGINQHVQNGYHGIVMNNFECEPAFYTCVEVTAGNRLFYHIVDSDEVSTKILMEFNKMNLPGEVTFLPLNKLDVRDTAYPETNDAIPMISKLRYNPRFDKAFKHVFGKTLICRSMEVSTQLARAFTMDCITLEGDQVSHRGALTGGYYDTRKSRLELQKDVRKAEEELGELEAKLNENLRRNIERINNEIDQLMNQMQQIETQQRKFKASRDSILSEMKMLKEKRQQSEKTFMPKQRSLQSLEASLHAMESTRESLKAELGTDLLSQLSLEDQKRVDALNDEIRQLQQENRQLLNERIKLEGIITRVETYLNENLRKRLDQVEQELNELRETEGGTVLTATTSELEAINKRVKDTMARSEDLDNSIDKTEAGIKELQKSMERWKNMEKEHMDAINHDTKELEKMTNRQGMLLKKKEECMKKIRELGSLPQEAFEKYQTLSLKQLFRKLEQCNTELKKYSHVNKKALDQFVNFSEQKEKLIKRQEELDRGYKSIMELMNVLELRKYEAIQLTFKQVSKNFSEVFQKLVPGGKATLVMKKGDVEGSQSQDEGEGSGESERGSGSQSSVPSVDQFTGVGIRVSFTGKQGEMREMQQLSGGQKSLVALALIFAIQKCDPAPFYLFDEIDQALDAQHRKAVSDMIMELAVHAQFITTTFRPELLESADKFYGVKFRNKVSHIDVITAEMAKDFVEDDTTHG", "sequence (O60216 whole entry, chain 3 of 4, further chain)": "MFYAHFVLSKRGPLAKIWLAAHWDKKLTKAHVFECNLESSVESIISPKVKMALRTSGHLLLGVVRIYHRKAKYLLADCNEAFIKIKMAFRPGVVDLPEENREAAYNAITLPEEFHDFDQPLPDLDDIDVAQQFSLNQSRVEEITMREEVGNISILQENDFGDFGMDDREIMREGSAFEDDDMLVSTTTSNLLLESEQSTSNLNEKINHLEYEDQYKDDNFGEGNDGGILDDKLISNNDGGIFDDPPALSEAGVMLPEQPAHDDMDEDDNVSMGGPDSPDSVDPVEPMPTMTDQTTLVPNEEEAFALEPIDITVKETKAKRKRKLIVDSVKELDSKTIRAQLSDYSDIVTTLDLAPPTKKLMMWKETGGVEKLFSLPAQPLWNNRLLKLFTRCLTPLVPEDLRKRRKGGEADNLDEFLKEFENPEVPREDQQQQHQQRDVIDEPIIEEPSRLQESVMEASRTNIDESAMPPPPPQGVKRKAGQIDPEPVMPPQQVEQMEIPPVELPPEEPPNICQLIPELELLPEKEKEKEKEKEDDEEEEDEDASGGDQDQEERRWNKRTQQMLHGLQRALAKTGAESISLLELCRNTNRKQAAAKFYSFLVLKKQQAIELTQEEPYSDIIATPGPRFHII", "sequence (Q8WVM7 whole entry, chain 4 of 4, further chain)": "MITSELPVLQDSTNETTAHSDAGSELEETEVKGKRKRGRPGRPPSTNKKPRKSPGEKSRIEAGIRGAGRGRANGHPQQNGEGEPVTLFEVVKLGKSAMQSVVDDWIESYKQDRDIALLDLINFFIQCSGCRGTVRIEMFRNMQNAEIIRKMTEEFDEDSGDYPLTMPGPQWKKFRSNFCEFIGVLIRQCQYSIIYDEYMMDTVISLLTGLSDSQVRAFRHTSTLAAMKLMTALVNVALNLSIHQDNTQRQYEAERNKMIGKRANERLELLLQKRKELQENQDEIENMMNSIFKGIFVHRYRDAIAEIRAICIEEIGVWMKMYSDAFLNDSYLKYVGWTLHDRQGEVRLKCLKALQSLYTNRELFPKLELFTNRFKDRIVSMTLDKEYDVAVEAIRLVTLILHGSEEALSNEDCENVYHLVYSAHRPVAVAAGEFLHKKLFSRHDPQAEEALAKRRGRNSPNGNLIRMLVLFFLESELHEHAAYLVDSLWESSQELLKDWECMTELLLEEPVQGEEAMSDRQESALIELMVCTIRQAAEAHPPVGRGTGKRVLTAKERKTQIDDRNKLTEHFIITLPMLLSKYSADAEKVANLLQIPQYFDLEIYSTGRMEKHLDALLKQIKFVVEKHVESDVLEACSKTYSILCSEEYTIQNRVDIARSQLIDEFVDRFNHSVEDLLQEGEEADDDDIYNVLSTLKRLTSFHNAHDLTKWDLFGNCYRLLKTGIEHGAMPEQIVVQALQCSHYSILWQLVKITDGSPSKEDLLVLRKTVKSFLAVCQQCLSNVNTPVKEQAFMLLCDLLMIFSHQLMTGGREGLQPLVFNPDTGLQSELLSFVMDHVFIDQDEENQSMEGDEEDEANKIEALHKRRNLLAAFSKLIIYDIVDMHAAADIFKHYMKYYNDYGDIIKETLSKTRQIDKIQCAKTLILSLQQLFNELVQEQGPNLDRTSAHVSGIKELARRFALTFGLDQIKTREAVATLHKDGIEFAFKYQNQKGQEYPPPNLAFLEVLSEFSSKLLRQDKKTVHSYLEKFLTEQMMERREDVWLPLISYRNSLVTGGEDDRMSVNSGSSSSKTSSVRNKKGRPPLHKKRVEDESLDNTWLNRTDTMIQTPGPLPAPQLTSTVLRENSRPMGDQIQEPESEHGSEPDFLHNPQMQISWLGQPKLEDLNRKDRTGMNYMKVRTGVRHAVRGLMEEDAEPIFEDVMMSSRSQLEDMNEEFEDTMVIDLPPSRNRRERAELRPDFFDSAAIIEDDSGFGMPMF", "experiment": "single-molecule fluorescence imaging of DNA loop extrusion"}, "[2]": {"target": "HeLa cohesin (unlabelled cohesin-STAG1) (human (endogenous in HeLa)) (UniProt Q14683)", "experiment": "single-molecule fluorescence imaging of DNA loop extrusion", "remark": "listed apart in the source"}},
  "data": [
    {"molecule": "NIPBL-ΔN labelled with ATTO550 (BB241) (domain or fragment)", "values": [
      {"measurement": "median residence time of NIPBL on loops, no PDS5B added", "setting": "[1]", "result": 50, "unit": "s"},
      {"measurement": "residence time of NIPBL on loops on which NIPBL was exchanged with PDS5B", "setting": "[1]", "result": 38, "unit": "s"}
    ]},
    {"molecule": "PDS5B labelled with JF646 (natural protein, JF646-HaloTag ligand on the HaloTag) MAHSKTRTNDGKITYPPGVKEISDKISKEEMVRRLKMVVKTFMDMDQDSEEEKELYLNLALHLASDFFLKHPDKDVRLLVACCLADIFRIYAPEAPYTSPDKLKDIFMFITRQLKGLEDTKSPQFNRYFYLLENIAWVKSYNICFELEDSNEIFTQLYRTLFSVINNGHNQKVHMHMVDLMSSIICEGDTVSQELLDTVLVNLVPAHKNLNKQAYDLAKALLKRTAQAIEPYITNFFNQVLMLGKTSISDLSEHVFDLILELYNIDSHLLLSVLPQLEFKLKSNDNEERLQVVKLLAKMFGAKDSELASQNKPLWQCYLGRFNDIHVPIRLECVKFASHCLMNHPDLAKDLTEYLKVRSHDPEEAIRHDVIVSIVTAAKKDILLVNDHLLNFVRERTLDKRWRVRKEAMMGLAQIYKKYALQSAAGKDAAKQIAWIKDKLLHIYYQNSIDDRLLVERIFAQYMVPHNLETTERMKCLYYLYATLDLNAVKALNEMWKCQNLLRHQVKDLLDLIKQPKTDASVKAIFSKVMVITRNLPDPGKAQDFMKKFTQVLEDDEKIRKQLEVLVSPTCSCKQAEGCVREITKKLGNPKQPTNPFLEMIKFLLERIAPVHIDTESISALIKQVNKSIDGTADDEDEGVPTDQAIRAGLELLKVLSFTHPISFHSAETFESLLACLKMDDEKVAEAALQIFKNTGSKIEEDFPHIRSALLPVLHHKSKKGPPRQAKYAIHCIHAIFSSKETQFAQIFEPLHKSLDPSNLEHLITPLVTIGHIALLAPDQFAAPLKSLVATFIVKDLLMNDRLPGKKTTKLWVPDEEVSPETMVKIQAIKMMVRWLLGMKNNHSKSGTSTLRLLTTILHSDGDLTEQGKISKPDMSRLRLAAGSAIVKLAQEPCYHEIITLEQYQLCALAINDECYQVRQVFAQKLHKGLSRLRLPLEYMAICALCAKDPVKERRAHARQCLVKNINVRREYLKQHAAVSEKLLSLLPEYVVPYTIHLLAHDPDYVKVQDIEQLKDVKECLWFVLEILMAKNENNSHAFIRKMVENIKQTKDAQGPDDAKMNEKLYTVCDVAMNIIMSKSTTYSLESPKDPVLPARFFTQPDKNFSNTKNYLPPEMKSFFTPGKPKTTNVLGAVNKPLSSAGKQSQTKSSRMETVSNASSSSNPSSPGRIKGRLDSSEMDHSENEDYTMSSPLPGKKSDKRDDSDLVRSELEKPRGRKKTPVTEQEEKLGMDDLTKLVQEQKPKGSQRSRKRGHTASESDEQQWPEEKRLKEDILENEDEQNSPPKKGKRGRPPKPLGGGTPKEEPTMKTSKKGSKKKSGPPAPEEEEEEERQSGNTEQKSKSKQHRVSRRAQQRAESPESSAIESTQSTPQKGRGRPSKTPSPSQPKKNVRVGRSKQAATKENDSSEEVDVFQGSSPVDDIPQEETEEEEVSTVNVRRRSAKRERR", "values": [
      {"measurement": "median time for which NIPBL and PDS5B were both on the loop during exchange", "setting": "[2]", "result": 3, "unit": "s"}
    ]}
  ]
}
